Measured values taken from paper PMC4430413.

Target: monomeric Uox conjugated to HSA (HSA-conjugated Uox-W160.174AzF subunit of Uox-HSA) (Aspergillus flavus | human) (UniProt P02768)
Assay: co-purification by ion exchange chromatography, read by SDS-PAGE

Chain of UniProt P02768 (P02768 whole entry, looked up): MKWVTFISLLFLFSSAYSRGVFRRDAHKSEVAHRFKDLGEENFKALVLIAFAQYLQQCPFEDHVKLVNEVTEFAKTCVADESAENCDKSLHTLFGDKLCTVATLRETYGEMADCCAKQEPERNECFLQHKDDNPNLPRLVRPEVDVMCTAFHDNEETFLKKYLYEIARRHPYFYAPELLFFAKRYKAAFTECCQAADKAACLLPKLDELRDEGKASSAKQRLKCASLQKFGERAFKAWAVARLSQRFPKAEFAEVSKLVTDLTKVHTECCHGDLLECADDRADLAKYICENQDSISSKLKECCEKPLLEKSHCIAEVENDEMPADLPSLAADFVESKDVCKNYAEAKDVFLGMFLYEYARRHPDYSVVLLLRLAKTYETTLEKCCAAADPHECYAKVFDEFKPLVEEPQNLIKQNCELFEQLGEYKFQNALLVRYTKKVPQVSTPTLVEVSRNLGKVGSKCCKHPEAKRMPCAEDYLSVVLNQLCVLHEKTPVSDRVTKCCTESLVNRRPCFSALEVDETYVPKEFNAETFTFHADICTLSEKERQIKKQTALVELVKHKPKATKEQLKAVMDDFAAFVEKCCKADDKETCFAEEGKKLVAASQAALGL

Work on “AzF-incorporated urate oxidase (Uox-W160.174AzF) (enzyme)” yielded a molar ratio of unreacted Uox monomer to monomeric Uox conjugated to HSA of 2.5.
